# B1: PcTF, monovalent Polycomb-based transcription factor (pET28 construct, purified from E. coli) (designed binder)
# chain: MELSAVGERVFAAEALLKRRIRKGRMEYLVKWKGWSQKYSTWEPEENILDARLLAAFEERER
# How the values were obtained:
# [1] = target: T1, biotinylated histone H3 peptide trimethylated at lysine 27, H3K27me3 (21-44) (UniProt P68431 22-45, trimethyl-lysine at K27; biotinylated); test: peptide microspot array; apparent Kd; 50 uM H3K27me3; replicate 2
# [2] = target: T1, biotinylated histone H3 peptide …; test: peptide microspot array; apparent Kd; 10 uM H3K27me3; replicate 1
# [3] = target: T1, biotinylated histone H3 peptide …; test: peptide microspot array; apparent Kd; 20 uM H3K27me3; replicate 3
# [4] = target: T1, biotinylated histone H3 peptide …; test: peptide microspot array; apparent Kd; 10 uM H3K27me3; replicate 3
# [5] = target: T1, biotinylated histone H3 peptide …; test: peptide microspot array; apparent Kd; 50 uM H3K27me3; replicate 1
# [6] = target: T1, biotinylated histone H3 peptide …; test: peptide microspot array; apparent Kd; 20 uM H3K27me3; replicate 2
# [7] = target: T1, biotinylated histone H3 peptide …; test: peptide microspot array; apparent Kd; 10 uM H3K27me3; replicate 2
binder,measurement,setting,value
B1,Kd,[1],7.73 µM
same,Kd,[2],1.54 µM
same,Kd,[3],6.45 µM
same,Kd,[4],7.6 µM
same,Kd,[5],3.5 µM
same,Kd,[6],5.66 µM
same,Kd,[7],1.55 µM
